This is an account of results in publication PMC4277400.

This assay concerns the target H1-HFBI: hemagglutinin ectodomain of influenza A/Texas/05/2009 (H1N1) fused to hydrophobin I (Influenza A/Texas/05/2009 (H1N1) virus | Trichoderma reesei) (UniProt P52754). As to the kind of experiment: SEC.

Turning to “H1-HFBI: hemagglutinin ectodomain of influenza A/Texas/05/2009 (H1N1) fused to hydrophobin I (from UniProt P52754 23-97)”, the ratio of HMWO/monomer stood at 2.
